Reference: US20260365696A1, “INHIBITORS OF PTP1B / NCK1 INTERACTION AND METHODS OF MAKING AND USING SAME” (Radella Pharmaceuticals LLC, priority 2023, published 2026)
Where two headings read alike, the source gives them in different places. No end group written: not given here.

Key:
db/db mice = assay: db/db genetic mouse model of diabetes and obesity; type: in vivo
Description: Animals: All animals were housed and tested following European (Directive on the Protection of Animals used for Scientific Purposes, 2010/63/EU) and UK Home Office regulations. Experiments were approved by the University Ethics Board and carried out in accordance with the Animal (Scientific Procedures) Act 1986 and following ARRIVE guidelines. Db/db male mice (~4 weeks old) were purchased from Jackson, USA. All mice received standard mouse chow diet and had ad libitum access to food and water and were kept in a 12 h light/dark cycle.
Treatments: Mice were assigned and counterbalanced according to their body weights in to the following groups: control PBS (n=10); MD18 at 15 mg/kg (n=7), 30 mg/kg (n=8), or 45 mg/kg (n=7); or MD20 at 15 mg/kg (n=9), 30 mg/kg (n=10) or 45 mg/kg (n=7). MD18 and MD20 were administered once daily via subcutaneous (SC) injection for 41 days, whereas control mice received a daily SC injection of vehicle (PBS). MD18 and MD20 were kept in −20 °C and dissolved in sterile phosphate buffered saline (PBS).
Body weights and body mass composition: Body weights were recorded twice weekly during the study, and fat mass and lean mass composition was analysed using an EchoMRI scanner (EchoMedical Systems, Houston, TX, U.S.A.).
Metabolic measurements: All animals were five-hour fasted before obtaining basal glucose measurements and GTT, ITT, and corresponding treatments were administered 1 hour before glucose measurements. Tail blood glucose was measured using AlphaTRAK 2 glucose strips and glucometer (Abbot, UK), or blood was collected and glucose assay (AB65333, Abcam) was performed where readings were too high to be recorded via glucometer. Human Actrapid Insulin (NovaNordisk) at 1 IU/kg dose was administered during ITT.
Serum and liver assays: Trunk-derived blood was collected from 5 h-fasted mice into serum separator microtubes and kept at −80 °C. Serum was used for insulin (#EZRMI-13K, Merck) and leptin (#90030, Crystal Chem) analyses.
Statistical analyses: Data were reported as means±SEM and analysed using one- or two-way ANOVA with Bonferroni post hoc tests, as appropriate. GraphPad Prism (V8, GraphPad Software, Inc., San Diego, California, USA) was used for statistical analyses. P-values <0.05 were considered significant.

SH3-2 domain of NCK1 = target: T1, SH3-2 domain of NCK1 (Homo sapiens, UniProt P16333); assay: Isothermal titration calorimetry (ITC) binding to NCK1 SH3-2 domain
T1 construct: To amplify the NCK1 SH3-2 domain, the primers; 10xHis tag with TEV site (vector pSF-OXB20-NH2-10HIS) (N, cleaved yes); made in house; host or cells: E. coli C43(DE3)
Method in brief: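 Measured at 25 °C, pH 8.0 (10 mM sodium buffer, sodium chloride), by calorimetric titration of 3-7.5 mM peptide into 0.125-0.3 mM recombinant NCK1 SH3-2 domain with His tag removed, using 20 injections. Affinities are means of three experiments, fitted with stoichiometry 0.8-1.2.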

NCK1 SH3-2 domain [1] = target: T2, NCK1 SH3-2 domain (human); assay: ITC
T2 chain: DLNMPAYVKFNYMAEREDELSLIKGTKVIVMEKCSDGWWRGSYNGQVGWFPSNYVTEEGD

NCK1 SH3-2 domain [2] = target: T2, NCK1 SH3-2 domain; assay: ITC
NCK1 SH3-2 domain [3] = target: T2, NCK1 SH3-2 domain; assay: ITC
NCK1 SH3-2 domain [4] = target: T2, NCK1 SH3-2 domain; assay: ITC
NCK1 SH3-2 domain [5] = target: T2, NCK1 SH3-2 domain; assay: ITC
NCK1 SH3-2 domain [6] = target: T2, NCK1 SH3-2 domain; assay: ITC
NCK1 SH3-2 domain [7] = target: T2, NCK1 SH3-2 domain; assay: ITC

In the case of Ac-PPRPPKR-NH2 [MD18, Ac-PPRPPKR-NH2], the leptin levels (db/db mice; 15 mg/kg SC daily, about 6 weeks, vs control) is reported as “A trend for decreased leptin levels”, the “glucose clearance during GTT” value (db/db mice; 15 mg/kg SC daily, week 4, vs control) is reported as “better glucose clearance at 15-minutes post-glucose injection” and the fat mass gain (db/db mice; 15 mg/kg and 30 mg/kg SC daily) is reported as “inhibited fat mass gain”. For the same molecule, the body weight gain (db/db mice; 15 mg/kg and 30 mg/kg SC daily, vs control) was “significantly inhibited body weight gain”, the fasted insulin levels (db/db mice; 30 mg/kg SC daily, about 6 weeks, vs control) was “A trend for lower fasted insulin levels” and the basal glucose levels (db/db mice; 5-hour-fasted, SC daily, vs vehicle) was “No significant differences”. The “efficacy with respect to inhibiting body weight, inhibiting fat mass gain, and improving glucose clearance during GTT” value (db/db mice; SC daily, compared to MD20) was “better efficacy as compared to MD20 treatment”, the “insulin tolerance test (ITT)” value (db/db mice; SC daily, week 6, 1 IU/kg insulin, vs control) was “did not detect any significant differences” and the Kd (SH3-2 domain of NCK1; Peptide truncation analysis, ITC, 25 °C, pH 8.0) was no more than 300 µM. It also gave a Kd (SH3-2 domain of NCK1; ability to bind SH3-2 domain of NCK1, stated in text) of less than 193 µM.

Ac-PPRTPKR-NH2 [MH115] was tested, and the Kd (NCK1 SH3-2 domain [1]) was less than 600 µM.

Ac-PPRPPKRIL-NH2 [MH064] showed a Kd (NCK1 SH3-2 domain [2]) of less than 300 µM.

With SVQDQWKELSHEDLEPPPEHIPPPPRPPKR-NH2 (not fully specified (N-terminus)) [MH136] the Kd (NCK1 SH3-2 domain [2]) was less than 300 µM.

In the case of Ac-IPPPPR-NH2 [MH038], the Kd (NCK1 SH3-2 domain [3]) is reported as greater than 1000 µM.

Work on Ac-PPRPPKK-NH2 [MH076] yielded a Kd (NCK1 SH3-2 domain [4]) greater than 1000 µM.

Ac-PPRMPKR-NH2 [MH111]: no binding (NCK1 SH3-2 domain [5]).

Ac-PPRPPK-NH2 [MH035] showed a Kd (NCK1 SH3-2 domain [3]) greater than 1000 µM.

For Ac-PPRPPKRI-NH2 [MH063], the Kd (NCK1 SH3-2 domain [2]) was less than 300 µM and the Kd (NCK1 SH3-2 domain [6]) was less than 300 µM.

Ac-PPRLPKR-NH2 [MH101] was tested, and the Kd (NCK1 SH3-2 domain [1]) was less than 600 µM.

H-PPRPPKR-NH2 [MH075] gave a Kd (NCK1 SH3-2 domain [4]) of less than 300 µM.

Ac-PPRGPKR-NH2 [MH093]: no binding (NCK1 SH3-2 domain [5]).

Ac-PPRSPKR-NH2 [MH108]: no binding (NCK1 SH3-2 domain [5]).

Ac-PPPEHIPPPPRPPKRILE-NH2 [MH077] showed a Kd (NCK1 SH3-2 domain [2]) of less than 300 µM.

Ac-PPRHPKR-NH2 [MH132]: no binding (NCK1 SH3-2 domain [5]).

In the case of EPRPPKR-NH2 (not fully specified (residue 1)) [MH043], the Kd (NCK1 SH3-2 domain [4]) is reported as less than 300 µM.

Ac-PPRDPKR-NH2 [MH128]: no binding (NCK1 SH3-2 domain [5]).

Ac-PPPRPPK-NH2 [MH041] was tested, and the Kd (NCK1 SH3-2 domain [3]) was greater than 1000 µM.

Ac-PPEHIP-NH2 [MH040] gave a Kd (NCK1 SH3-2 domain [3]) greater than 1000 µM.

For Ac-PRPPKA-NH2 [MH013], the Kd (NCK1 SH3-2 domain [7]) was greater than 1000 µM.

Ac-PRPAKR-NH2 [MH011] showed a Kd (NCK1 SH3-2 domain [7]) greater than 1000 µM.

For Ac-PPRVPKR-NH2 [MH125], the Kd (NCK1 SH3-2 domain [1]) was less than 300 µM.

In the case of Ac-ARPPKR-NH2 [MH008], the Kd (NCK1 SH3-2 domain [7]) is reported as greater than 1000 µM.

Molecule Ac-PPPPRP-NH2 [MH037] has a Kd (NCK1 SH3-2 domain [3]) greater than 1000 µM.

Ac-PPRKPKR-NH2 [MH104] was tested, and the Kd (NCK1 SH3-2 domain [1]) was less than 600 µM.

Work on Ac-PPRYPKR-NH2 [MH121] yielded a Kd (NCK1 SH3-2 domain [1]) of less than 600 µM.

Ac-PPRCPKR-NH2 [MH129]: no binding (NCK1 SH3-2 domain [5]).

With Ac-PPPEHIPPPPRPPKRILEPHNGKCREFFPN-NH2 [MH137] the Kd (NCK1 SH3-2 domain [2]) was less than 300 µM.

Molecule Ac-PPRRPKR-NH2 [MH062] has a Kd (NCK1 SH3-2 domain [1]) of less than 600 µM.

Ac-PPRPPKR-NHEt [MH046] gave a Kd (NCK1 SH3-2 domain [4]) of less than 300 µM.

With Ac-PRPPAR-NH2 [MH012] the Kd (NCK1 SH3-2 domain [7]) was less than 600 µM.

Ac-PPREPKR-NH2 [MH130]: no binding (NCK1 SH3-2 domain [5]).

For Ac-PRAPKR-NH2 [MH010], the Kd (NCK1 SH3-2 domain [7]) was greater than 1000 µM.

In the case of Ac-PPRPPKRILE-NH2 [MH065], the Kd (NCK1 SH3-2 domain [2]) is reported as less than 300 µM.

Ac-PPRNPKR-NH2 [MH127]: no binding (NCK1 SH3-2 domain [5]).

Molecule Ac-EHIPPP-NH2 [MH039] has a Kd (NCK1 SH3-2 domain [3]) greater than 1000 µM.

Work on Ac-PPPEHIPPPPRPPKRILEPHNGKCR-NH2 [MH134] yielded a Kd (NCK1 SH3-2 domain [2]) of less than 300 µM.

Work on Ac-HEDLEPPPEHIPPPPRPPKR-NH2 [MH090] yielded a Kd (NCK1 SH3-2 domain [2]) of less than 300 µM.

Ac-PPRQPKR-NH2 [MH131]: no binding (NCK1 SH3-2 domain [5]).

Work on Ac-PPPRPP-NH2 [MH036] yielded a Kd (NCK1 SH3-2 domain [3]) greater than 1000 µM.

For Ac-PAPPKR-NH2 [MH009], the Kd (NCK1 SH3-2 domain [7]) was less than 300 µM.

Ac-WKELSHEDLEPPPEHIPPPPRPPKR-NH2 [MH135] was tested, and the Kd (NCK1 SH3-2 domain [2]) was less than 300 µM.

In the case of Ac-PPPEHIPPPPRPPKRILEPH-NH2 [MH089], the Kd (NCK1 SH3-2 domain [2]) is reported as less than 300 µM.

Ac-PPRWPKR-NH2 [MH118]: no binding (NCK1 SH3-2 domain [5]).

Work on Ac-PPRFPKR-NH2 [MH067] yielded a Kd (NCK1 SH3-2 domain [1]) greater than 600 µM.

For Ac-PPRIPKR-NH2 [MH097], the Kd (NCK1 SH3-2 domain [1]) was less than 300 µM.
